Data as given in paper PMC9223101, “Transcription Regulation of Cell Cycle Regulatory Genes Mediated by NtrX to Affect Sinorhizobium meliloti Cell Division”.

Target: T1, NtrX D53E (His-NtrXD53E) (Sinorhizobium meliloti 1021, UniProt Q92Q87 1-454, D53E)
T1 sequence: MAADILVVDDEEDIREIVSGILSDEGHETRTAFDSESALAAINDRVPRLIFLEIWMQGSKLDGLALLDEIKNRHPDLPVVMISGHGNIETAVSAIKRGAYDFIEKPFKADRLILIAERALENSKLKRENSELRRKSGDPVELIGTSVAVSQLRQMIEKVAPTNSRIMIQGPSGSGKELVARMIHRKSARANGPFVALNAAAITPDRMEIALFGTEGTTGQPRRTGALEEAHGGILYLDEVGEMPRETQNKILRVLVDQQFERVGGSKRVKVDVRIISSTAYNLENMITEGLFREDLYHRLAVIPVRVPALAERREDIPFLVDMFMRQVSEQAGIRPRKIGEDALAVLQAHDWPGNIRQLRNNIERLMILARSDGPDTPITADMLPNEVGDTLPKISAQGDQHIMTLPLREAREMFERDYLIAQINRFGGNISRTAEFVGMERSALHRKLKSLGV
Test: EMSA; 5 mM Mg2+; almost no complex; EMSA, 20 uL: 3, 6, 15 ng NtrX, 2 nM probe (2 or 40 nM in Methods), 1x binding buffer, 5 mM MgCl2, 50 ng/uL poly(dI-dC), 0.05% NP-40, 1% glycerol, 30 min at 28 C; pH and salt of binding buffer not stated (phosphorylation in 50 mM Tris-HCl pH 7.6, 50 mM KCl, 20 mM MgCl2 nominal 1x)
Details: protein: recombinant; tags: His (pET28b); chain copies: 2; label: biotin; blunt

B1: ntrY promoter probe (dsDNA)
DNA 1: GCGCTTGACTGAGATGCAACACCGTTGCATTTTCGCCACAATGCGTTGCTTGAACCTCGCATAAGCGTCGATTCGCCGGC
DNA 2: GCCGGCGAATCGACGCTTATGCGAGGTTCAAGCAACGCATTGTGGCGAAAATGCAACGGTGTTGCATCTCAGTCAAGCGC
binding result: no binding
